Assay results as given in PMC8189435, “Timer-based proteomic profiling of the ubiquitin-proteasome system reveals a substrate receptor of the GID ubiquitin ligase” (Molecular Cell, 2021).

Molecular target: T1, Gid1-tFT (chromosomally tagged Gid1-mCherry-sfGFP) (S. cerevisiae, UniProt P53076 1-958)
T1 construct: Gid1, subunit of the GID ubiquitin ligase complex, S. cerevisiae; endogenous locus tagged with mCherry-sfGFP; It was precipitated with anti-GFP antibodies from lysate, so other GID subunits are likely present with it; source: S. cerevisiae, chromosomally tagged (strain YMaM1083; YLZY0091 for gid5Δ), in lysate; not shown: mCherry-sfGFP timer (tFT), C-terminal, kept
T1 sequence (looked up): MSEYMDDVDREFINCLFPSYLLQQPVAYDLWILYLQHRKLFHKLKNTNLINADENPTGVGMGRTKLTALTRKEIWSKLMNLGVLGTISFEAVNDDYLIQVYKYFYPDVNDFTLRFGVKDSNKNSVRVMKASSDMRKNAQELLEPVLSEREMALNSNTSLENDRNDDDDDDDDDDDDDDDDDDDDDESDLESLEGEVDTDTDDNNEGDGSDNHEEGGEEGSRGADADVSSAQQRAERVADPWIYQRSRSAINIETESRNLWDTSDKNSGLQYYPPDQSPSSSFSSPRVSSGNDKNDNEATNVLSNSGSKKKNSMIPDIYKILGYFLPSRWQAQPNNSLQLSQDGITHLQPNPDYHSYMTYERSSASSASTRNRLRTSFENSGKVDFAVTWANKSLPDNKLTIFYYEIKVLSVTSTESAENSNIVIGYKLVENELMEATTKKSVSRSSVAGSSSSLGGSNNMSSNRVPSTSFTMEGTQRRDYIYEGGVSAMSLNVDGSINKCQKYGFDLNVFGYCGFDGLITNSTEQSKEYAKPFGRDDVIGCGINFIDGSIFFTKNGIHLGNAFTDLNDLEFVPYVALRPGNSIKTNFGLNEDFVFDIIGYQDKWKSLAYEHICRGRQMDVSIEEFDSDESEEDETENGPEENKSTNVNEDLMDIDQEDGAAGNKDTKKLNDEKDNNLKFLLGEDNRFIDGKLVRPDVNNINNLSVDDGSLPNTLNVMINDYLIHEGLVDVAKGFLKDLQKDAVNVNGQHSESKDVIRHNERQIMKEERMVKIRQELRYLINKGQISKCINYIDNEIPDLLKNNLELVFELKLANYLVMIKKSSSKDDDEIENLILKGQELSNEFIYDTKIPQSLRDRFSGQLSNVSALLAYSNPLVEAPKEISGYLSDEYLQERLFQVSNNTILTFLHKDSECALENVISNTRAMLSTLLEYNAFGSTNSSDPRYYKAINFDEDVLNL
Test: co-IP; tFT-tagged bait precipitated with rabbit anti-GFP on Dynabeads from yeast lysates (log phase, SC medium lacking histidine, 2% glucose); IP buffer 50 mM Tris-HCl pH 7.5, 100 mM NaCl, 1% Triton X-100, 2 mM EDTA; 2 h at 4°C; HA-tagged prey detected by anti-HA blot; WT or gid5Δ cells
Conditions: partners not purified

relative amount of co-immunoprecipitated HA-Gid11, normalized to precipitated Gid1-tFT, in gid5Δ cells compared with the WT: 0.43 relative to WT
B1: HA-Gid11 (Ylr149c/Gid11) (natural protein, S. cerevisiae, UniProt Q99296 1-730, looked up)
chain: MTIDGTGQSKEALQDERLNTGSDKVYQNYMMPALELYDAKVSINHWQLRDCIKPGSMNQSKLYYIYDHSIRVLDTDSSVLRSPVRRHNSIQPSNSGKNSTEKTSTKGSRTTGSYISKNLHVPSEKLVEFNFKPRCFTELNGLTVCGGLIGSDDKGFPSNWNRLAQDANISLPPPSQPINISKNISFPINSHYSNPNIWKGIVEFYNQETDTMMTFTLGQFINNCVTLYDRASMQFDLFACNNDGHLYQCDVSNRDVTLVKRYADLKFPLNNASLSHDGQTMVVSGDSNKFAVYNQNELTNQFSLHYDNHPSWGSSVNRVRRIPRFALPDESEYIENIYEAPNSDHGFYNSFSENDLQFATVFQNGTCAIYDIRNMATPMAEISSTRPHSHNGAFRVCRFSYGLDDLLFISEHQGRVHVVDTRNYVNHQVIVIPDKVNMEYINERKHNTNHNFTTNNNNENESNDSKNELQGADYRSLSRRRFSLPSMPNVTTEPWITMAQRIPKKYLEPQILPFPKVMDKISNESVLFSTKGSSSSDVAHPYKRRCSFRVRRVSTSAPTADYSNNNVNASLGTPAADSIATSSSNSAPQNLIDPLILSHQQASNDVFEDDEYYEAYNDVHSTYRVSSDYHGVSARAFESFLRPPSTPDLPSDDDNFAANSRNNRGTSNFLRRPVITTQESNEFSEENNISGIDWVEDRNGSSLIIGTDYGIMRWNINSWARRSFSSYDLC
notes: Gid11 (Ylr149c), S. cerevisiae, WD40/YVTN repeat-like domain protein; the last 4 residues are printed as 727-730, so the protein ends at residue 730; also called HA-YLR149C; source: S. cerevisiae, overexpressed from plasmid pRS413-GPDpr-HA-YLR149C, in lysate; not shown: HA, N-terminal, kept
